Data taken from publication PMC2133148 (The Journal of Cell Biology, 1999).
No end group written: not given here.

Experiments:
Test in all cases: two-hybrid
[1] = biological target: PS2-loop C (LexA fusion bait) (human, UniProt P49810 270-300)
[2] = biological target: PS1-loop C (LexA fusion bait) (human, UniProt P49768 264-294)
[3] = biological target: PS1-loop C (T281P, L282I) (LexA fusion bait) (human, UniProt P49768 264-294, T281P | L282I)
[4] = biological target: PS1-loop C (T281P, T291A) (LexA fusion bait) (human, UniProt P49768 264-294, T281P | T291A)
[5] = biological target: T1, PS2-loop D (LexA fusion bait) (human, UniProt P49810 301-319, also: LexA fusion bait)
T1 chain (looked up): TVGMAKLDPSSQGALQLPY

[6] = biological target: PS1-loop C T291A (LexA fusion bait) (human, UniProt P49768 264-294, T291A)
[7] = biological target: PS2-loop B (LexA fusion bait) (human, UniProt P49810 270-319)
[8] = biological target: PS1-loop C T281P (LexA fusion bait) (human, UniProt P49768 264-294, T281P)

B1: calmyrin (clone 7, full-length cDNA in pJG4-5) (natural protein, human, UniProt Q99828 1-191, looked up)
chain: MGGSGSRLSKELLAEYQDLTFLTKQEILLAHRRFCELLPQEQRSVESSLRAQVPFEQILSLPELKANPFKERICRVFSTSPAKDSLSFEDFLDLLSVFSDTATPDIKSHYAFRIFDFDDDGTLNREDLSRLVNCLTGEGEDTRLSASEMKQLIDNILEESDIDRDGTINLSEFQHVISRSPDFASSFKIVL
- fold increase in β-galactosidase activity over the lamin B control [1]: 74 fold
- fold increase in β-galactosidase activity over the lamin B control [2]: 5.8 fold
- interaction relative to PS1-loop C T281P [3]: 1.7 fold of T281P alone
- interaction relative to PS2-loop C [4]: ~2 fold of the wild-type PS2-loop bait
- fold increase in β-galactosidase activity over the lamin B control [5]: 2.2 fold
- interaction relative to PS2-loop C [6]: ~0.33 fold of the PS2 level
- fold increase in β-galactosidase activity over the lamin B control [7]: 8.5 fold
- interaction relative to PS2-loop C [8]: ~0.5 fold of the PS2 level
